Results taken from patent US20090093061A1.

Key:
Test in all cases: GroEL-490 bead column capture of denatured serum, ATP elution, LC-MS-MS
[1] = target: baculoviral IAP repeat-containing 6 (Homo sapiens) (UniProt Q9NR09)
[2] = target: transferrin (Homo sapiens) (UniProt P02787)
[3] = target: kinesin family member 23 isoform 1 (Homo sapiens) (UniProt Q02241)
[4] = target: MAP/ERK kinase kinase 4 isoform a (Homo sapiens) (UniProt Q9Y6R4)
[5] = target: glutaminase C (Homo sapiens) (UniProt O94925)
Sequence of glutaminase C (Homo sapiens) (O94925 55-669 limits assumed): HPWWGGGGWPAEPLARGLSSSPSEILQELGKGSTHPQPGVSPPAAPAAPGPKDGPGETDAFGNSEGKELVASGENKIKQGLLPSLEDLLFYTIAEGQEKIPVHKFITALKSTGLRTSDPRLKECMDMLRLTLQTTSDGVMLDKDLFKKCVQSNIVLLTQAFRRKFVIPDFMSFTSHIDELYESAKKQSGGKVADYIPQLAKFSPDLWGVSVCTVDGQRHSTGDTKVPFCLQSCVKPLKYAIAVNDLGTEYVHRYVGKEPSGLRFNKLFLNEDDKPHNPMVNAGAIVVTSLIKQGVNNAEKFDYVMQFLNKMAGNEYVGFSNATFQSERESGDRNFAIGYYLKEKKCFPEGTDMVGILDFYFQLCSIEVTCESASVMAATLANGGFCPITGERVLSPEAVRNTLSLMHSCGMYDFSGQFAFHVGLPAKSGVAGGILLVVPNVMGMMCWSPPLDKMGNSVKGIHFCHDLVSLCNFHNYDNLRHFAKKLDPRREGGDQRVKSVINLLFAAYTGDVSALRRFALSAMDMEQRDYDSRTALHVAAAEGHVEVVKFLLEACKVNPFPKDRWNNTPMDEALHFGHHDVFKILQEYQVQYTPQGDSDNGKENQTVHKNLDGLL

[6] = target: hypothetical protein FLJ12178 (Homo sapiens)
[7] = target: microfilament and actin filament cross-linker protein isoform a (UniProt Q9UPN3)
[8] = target: hypothetical protein XP_376158 (Homo sapiens)
[9] = target: integrin, beta 5 (Homo sapiens) (UniProt P18084)
[10] = target: similar to CXYorf1-related protein (Homo sapiens)
Sequence of similar to CXYorf1-related protein (Homo sapiens) (A8K0Z3 whole entry): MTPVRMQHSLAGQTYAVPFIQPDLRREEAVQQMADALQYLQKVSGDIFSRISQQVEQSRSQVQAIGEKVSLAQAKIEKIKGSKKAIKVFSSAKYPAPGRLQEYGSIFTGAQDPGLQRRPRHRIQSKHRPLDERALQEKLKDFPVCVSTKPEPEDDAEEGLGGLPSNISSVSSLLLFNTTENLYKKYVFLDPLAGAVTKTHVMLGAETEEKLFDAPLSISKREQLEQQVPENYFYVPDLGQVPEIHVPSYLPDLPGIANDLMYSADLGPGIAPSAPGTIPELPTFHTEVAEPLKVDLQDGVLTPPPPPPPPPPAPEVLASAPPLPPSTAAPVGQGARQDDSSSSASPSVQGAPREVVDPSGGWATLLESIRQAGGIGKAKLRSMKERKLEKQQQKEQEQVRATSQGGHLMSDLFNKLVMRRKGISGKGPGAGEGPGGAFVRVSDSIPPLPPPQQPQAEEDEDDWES

[11] = target: dendrin (Homo sapiens) (UniProt O94850)
[12] = target: START domain containing 9 (Homo sapiens) (UniProt Q9P2P6)
[13] = target: solute carrier family 4, anion exchanger, member 2 (erythrocyte membrane protein band 3-liKe 1) (Homo sapiens) (UniProt P04920)
[14] = target: angiomotin like 2 (Homo sapiens) (UniProt Q9Y2J4)
[15] = target: alpha 2 macroglobulin precursor (Homo sapiens) (UniProt P01023)
[16] = target: hypothetical protein FLJ21439 (Homo sapiens)
[17] = target: extra spindle poles like 1 (Homo sapiens) (UniProt Q14674)
[18] = target: tumor protein p53 binding protein, 2 (Homo sapiens) (UniProt Q13625)
[19] = target: chondroitin sulfate proteoglycan 6 (bamacan) (Homo sapiens) (UniProt Q9UQE7)
[20] = target: hemicentin (Homo sapiens) (UniProt Q96RW7)
[21] = target: apical protein of Xenopus-like (Homo sapiens) (UniProt Q13796)
[22] = target: KIAA0804 protein (Homo sapiens) (UniProt Q8N3P4)
[23] = target: POU domain, class 2, transcription factor 1 (Homo sapiens) (UniProt P14859)
[24] = target: RAN-binding protein 2-like 1 isoform 1 (Homo sapiens) (UniProt Q99666)
[25] = target: phosphoinositide-specific phospholipase C beta 1 isoform a (UniProt Q9NQ66)
Sequence of phosphoinositide-specific phospholipase C beta 1 isoform a (Q9NQ66 whole entry, canonical isoform): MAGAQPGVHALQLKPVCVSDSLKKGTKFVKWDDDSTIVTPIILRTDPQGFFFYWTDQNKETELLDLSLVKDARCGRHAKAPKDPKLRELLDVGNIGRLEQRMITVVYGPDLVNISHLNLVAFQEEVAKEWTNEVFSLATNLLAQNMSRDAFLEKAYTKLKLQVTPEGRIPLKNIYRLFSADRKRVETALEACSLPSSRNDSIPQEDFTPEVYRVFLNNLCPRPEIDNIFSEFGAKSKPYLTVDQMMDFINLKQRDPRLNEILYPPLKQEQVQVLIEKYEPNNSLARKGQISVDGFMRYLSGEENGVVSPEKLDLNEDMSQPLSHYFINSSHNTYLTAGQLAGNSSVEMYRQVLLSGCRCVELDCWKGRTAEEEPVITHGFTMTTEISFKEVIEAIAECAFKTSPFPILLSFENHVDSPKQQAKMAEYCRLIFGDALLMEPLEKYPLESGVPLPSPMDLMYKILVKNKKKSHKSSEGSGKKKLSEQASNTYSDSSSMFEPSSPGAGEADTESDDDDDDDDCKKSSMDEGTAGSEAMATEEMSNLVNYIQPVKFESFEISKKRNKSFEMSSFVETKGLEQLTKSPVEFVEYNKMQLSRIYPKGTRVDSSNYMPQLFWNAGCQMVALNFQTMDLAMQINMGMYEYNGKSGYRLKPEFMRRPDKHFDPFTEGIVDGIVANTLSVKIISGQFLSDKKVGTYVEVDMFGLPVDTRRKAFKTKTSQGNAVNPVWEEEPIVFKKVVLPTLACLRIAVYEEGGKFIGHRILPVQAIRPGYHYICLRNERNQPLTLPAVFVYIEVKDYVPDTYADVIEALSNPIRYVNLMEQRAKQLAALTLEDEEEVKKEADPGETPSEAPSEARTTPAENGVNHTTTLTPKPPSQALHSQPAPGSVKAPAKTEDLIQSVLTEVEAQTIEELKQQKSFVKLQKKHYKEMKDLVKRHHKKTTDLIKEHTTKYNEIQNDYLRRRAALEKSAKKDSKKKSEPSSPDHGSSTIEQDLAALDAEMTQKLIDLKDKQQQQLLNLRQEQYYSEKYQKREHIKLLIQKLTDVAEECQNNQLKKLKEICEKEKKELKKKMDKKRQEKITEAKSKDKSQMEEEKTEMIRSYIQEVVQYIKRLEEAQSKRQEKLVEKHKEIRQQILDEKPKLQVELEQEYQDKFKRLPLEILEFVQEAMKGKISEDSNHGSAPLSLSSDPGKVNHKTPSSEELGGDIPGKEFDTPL

[26] = target: dynein, cytoplasmic, heavy polypeptide 2 (Homo sapiens) (UniProt Q8NCM8)
[27] = target: UDP glycosyltransferase 2 family, polypeptide B7 (Homo sapiens) (UniProt P16662)
[28] = target: triple functional domain (PTPRF interacting) (Homo sapiens) (UniProt O75962)
[29] = target: titin isoform N2-A (Homo sapiens) (UniProt Q8WZ42)
[30] = target: ankyrin repeat domain 26 (Homo sapiens) (UniProt Q9UPS8)
[31] = target: leucine-rich repeat-containing G protein-coupled receptor 6 (Homo sapiens) (UniProt Q9HBX8)
[32] = target: serine (or cysteine) proteinase inhibitor, clade A (alpha-1 antiproteinase, antitrypsin), member 1 (UniProt P01009)
[33] = target: target of myb1 (Homo sapiens) (UniProt O60784)
Sequence of target of myb1 (Homo sapiens) (O60784 whole entry): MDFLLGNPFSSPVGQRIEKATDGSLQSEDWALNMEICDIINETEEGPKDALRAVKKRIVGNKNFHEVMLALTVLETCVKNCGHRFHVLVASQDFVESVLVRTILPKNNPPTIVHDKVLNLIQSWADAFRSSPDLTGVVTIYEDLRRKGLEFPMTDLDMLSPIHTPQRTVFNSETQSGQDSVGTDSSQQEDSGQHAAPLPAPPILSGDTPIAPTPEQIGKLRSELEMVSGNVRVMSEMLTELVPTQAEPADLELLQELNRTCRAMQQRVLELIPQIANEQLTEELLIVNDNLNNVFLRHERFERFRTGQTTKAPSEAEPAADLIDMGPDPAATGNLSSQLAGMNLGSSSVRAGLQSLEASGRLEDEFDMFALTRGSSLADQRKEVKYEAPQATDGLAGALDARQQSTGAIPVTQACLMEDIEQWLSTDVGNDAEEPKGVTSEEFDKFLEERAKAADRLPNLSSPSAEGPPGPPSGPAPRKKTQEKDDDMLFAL

[34] = target: MAX dimerization protein 5 (Homo sapiens) (UniProt Q8IWI9)
[35] = target: H2A histone family, member X (Homo sapiens) (UniProt P16104)

Sequence of GroEL having Aspartate 490 substituted with Cysteine, biotinylated and conjugated onto NeutrAvidin beads (A1AJ51 whole entry D490C): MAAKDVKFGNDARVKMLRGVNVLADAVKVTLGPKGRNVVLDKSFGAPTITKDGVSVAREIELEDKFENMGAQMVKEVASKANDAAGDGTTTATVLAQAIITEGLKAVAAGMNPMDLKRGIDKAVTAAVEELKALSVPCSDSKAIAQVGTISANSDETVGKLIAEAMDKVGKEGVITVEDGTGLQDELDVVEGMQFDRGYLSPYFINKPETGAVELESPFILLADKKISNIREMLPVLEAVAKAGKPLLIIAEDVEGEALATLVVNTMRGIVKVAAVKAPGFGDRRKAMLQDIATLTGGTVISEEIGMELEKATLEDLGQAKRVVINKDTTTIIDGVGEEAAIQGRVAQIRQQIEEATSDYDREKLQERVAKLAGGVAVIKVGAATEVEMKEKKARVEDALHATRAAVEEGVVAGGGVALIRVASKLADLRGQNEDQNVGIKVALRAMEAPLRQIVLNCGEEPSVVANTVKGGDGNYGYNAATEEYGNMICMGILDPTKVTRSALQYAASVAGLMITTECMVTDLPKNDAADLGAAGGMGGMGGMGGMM
Sequence of MAP/ERK kinase kinase 4 isoform a (Homo sapiens) (Q9Y6R4 whole entry, canonical isoform): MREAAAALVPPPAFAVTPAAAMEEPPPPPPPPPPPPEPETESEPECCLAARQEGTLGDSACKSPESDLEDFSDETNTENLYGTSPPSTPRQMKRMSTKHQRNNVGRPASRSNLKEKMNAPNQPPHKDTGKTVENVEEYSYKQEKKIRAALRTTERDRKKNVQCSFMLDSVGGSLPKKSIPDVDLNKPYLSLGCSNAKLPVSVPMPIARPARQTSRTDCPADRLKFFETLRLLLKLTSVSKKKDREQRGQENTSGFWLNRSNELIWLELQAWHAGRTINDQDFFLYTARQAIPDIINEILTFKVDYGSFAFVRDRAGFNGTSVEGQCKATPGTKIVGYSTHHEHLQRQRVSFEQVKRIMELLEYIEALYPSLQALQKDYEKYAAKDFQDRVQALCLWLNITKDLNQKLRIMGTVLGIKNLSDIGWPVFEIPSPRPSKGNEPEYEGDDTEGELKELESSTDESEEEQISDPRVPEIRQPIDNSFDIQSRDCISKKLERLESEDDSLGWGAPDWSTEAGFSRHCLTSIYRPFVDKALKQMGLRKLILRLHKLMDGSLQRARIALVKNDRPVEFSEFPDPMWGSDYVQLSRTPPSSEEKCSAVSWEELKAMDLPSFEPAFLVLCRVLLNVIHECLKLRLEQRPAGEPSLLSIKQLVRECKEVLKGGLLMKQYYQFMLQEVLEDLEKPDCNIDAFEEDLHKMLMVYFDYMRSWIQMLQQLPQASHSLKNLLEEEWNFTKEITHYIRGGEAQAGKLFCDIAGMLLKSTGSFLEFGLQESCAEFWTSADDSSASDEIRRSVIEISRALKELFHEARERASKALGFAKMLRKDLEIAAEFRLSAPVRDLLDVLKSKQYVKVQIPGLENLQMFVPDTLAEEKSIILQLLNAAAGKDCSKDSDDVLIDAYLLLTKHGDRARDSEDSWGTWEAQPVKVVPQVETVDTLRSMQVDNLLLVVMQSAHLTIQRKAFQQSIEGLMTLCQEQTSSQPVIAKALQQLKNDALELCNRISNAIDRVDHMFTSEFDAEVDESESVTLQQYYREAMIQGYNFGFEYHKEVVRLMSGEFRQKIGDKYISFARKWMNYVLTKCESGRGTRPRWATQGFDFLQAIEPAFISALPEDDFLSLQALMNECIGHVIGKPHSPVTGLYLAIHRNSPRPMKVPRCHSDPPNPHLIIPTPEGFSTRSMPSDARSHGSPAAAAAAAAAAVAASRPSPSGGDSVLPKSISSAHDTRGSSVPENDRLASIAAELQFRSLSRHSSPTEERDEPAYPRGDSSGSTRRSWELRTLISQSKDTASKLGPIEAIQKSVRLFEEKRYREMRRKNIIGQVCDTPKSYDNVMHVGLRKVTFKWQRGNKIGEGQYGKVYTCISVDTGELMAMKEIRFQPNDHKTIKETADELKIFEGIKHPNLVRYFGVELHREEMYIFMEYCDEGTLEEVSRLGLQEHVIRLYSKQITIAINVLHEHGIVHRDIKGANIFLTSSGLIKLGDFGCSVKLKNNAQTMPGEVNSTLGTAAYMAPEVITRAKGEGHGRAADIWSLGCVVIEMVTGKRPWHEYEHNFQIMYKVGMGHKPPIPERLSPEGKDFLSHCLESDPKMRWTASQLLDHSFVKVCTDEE

GroEL having Aspartate 490 substituted with Cysteine, biotinylated and conjugated onto NeutrAvidin beads (from UniProt A1AJ51 1-548)
Spectrum Count [1]: 113 count | Spectrum Count [2]: 60 count | Spectrum Count [3]: 53 count | Spectrum Count [4]: 13 count | Spectrum Count [5]: 27 count | Spectrum Count [6]: 9 count | Spectrum Count [7]: 10 count | Spectrum Count [8]: 15 count | Spectrum Count [9]: 9 count | Spectrum Count [10]: 110 count | Spectrum Count [11]: 14 count | Spectrum Count [12]: 10 count | Spectrum Count [13]: 12 count | Spectrum Count [14]: 17 count | Spectrum Count [15]: 43 count | Spectrum Count [16]: 11 count | Spectrum Count [17]: 9 count | Spectrum Count [18]: 9 count | Spectrum Count [19]: 9 count | Spectrum Count [20]: 10 count | Spectrum Count [21]: 11 count | Spectrum Count [22]: 13 count | Spectrum Count [23]: 11 count | Spectrum Count [24]: 11 count | Spectrum Count [25]: 34 count | Spectrum Count [26]: 10 count | Spectrum Count [27]: 26 count | Spectrum Count [28]: 14 count | Spectrum Count [29]: 16 count | Spectrum Count [30]: 9 count | Spectrum Count [31]: 9 count | Spectrum Count [32]: 20 count | Spectrum Count [33]: 30 count | Spectrum Count [34]: 33 count | Spectrum Count [35]: 41 count
